According to patent US20200317768A1 (published 2020):
Residue numbers refer to the chain shown, from its start.

T1: cynomolgus monkey FcγRIIa1 extracellular domain with C-terminal His-tag (cynomolgus monkey)
T1 construct: also called cyno FcgRIIa1; cynoFcγRIIa1
T1 chain: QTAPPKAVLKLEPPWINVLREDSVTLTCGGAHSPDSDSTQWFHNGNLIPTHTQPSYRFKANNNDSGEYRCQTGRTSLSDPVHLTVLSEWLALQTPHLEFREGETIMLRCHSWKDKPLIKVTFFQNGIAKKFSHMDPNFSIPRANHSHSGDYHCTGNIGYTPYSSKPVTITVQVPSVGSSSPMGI

T2: cynomolgus monkey FcγRIIa2 extracellular domain with C-terminal His-tag (cynomolgus monkey)
T2 construct: also called cyno FcgRIIa2; cynoFcγRIIa2
T2 chain: T1 chain with P95T, T121A, I127K, A128S, K130N, D135N, R142Q

T3: cynomolgus monkey FcγRIIa3 extracellular domain with C-terminal His-tag (cynomolgus monkey)
T3 construct: also called cyno FcgRIIa3; cynoFcγRIIa3
T3 chain: T1 chain with P95T, T121A, A128S, H133P, D135N

T4: cynomolgus monkey FcγRIIb extracellular domain with C-terminal His-tag (cynomolgus monkey)
T4 construct: also called cyno FcgRIIb; cynoFcγRIIb
T4 chain: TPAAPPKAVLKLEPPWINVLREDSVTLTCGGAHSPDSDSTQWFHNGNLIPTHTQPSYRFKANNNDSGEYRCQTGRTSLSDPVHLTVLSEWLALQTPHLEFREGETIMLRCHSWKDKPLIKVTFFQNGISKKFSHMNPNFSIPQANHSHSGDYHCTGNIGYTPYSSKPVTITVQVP

T5: cynomolgus monkey FcγRIIIaS extracellular domain with C-terminal His-tag (cynomolgus monkey, UniProt Q8SPW2 21-206 at identity 1.00))
T5 construct: also called cyno FcgRIIIaS; cynoFcγRIIIaS
T5 chain: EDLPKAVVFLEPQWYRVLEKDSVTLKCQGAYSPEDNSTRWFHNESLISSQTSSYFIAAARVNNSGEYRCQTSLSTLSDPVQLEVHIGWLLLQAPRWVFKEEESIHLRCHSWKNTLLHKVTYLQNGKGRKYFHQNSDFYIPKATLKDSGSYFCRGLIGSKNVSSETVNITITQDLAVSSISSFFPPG

T6: human FcγRIIaR extracellular domain with C-terminal His-tag (human, UniProt P12318 34-217)
T6 construct: also called human FcgRIIaR; FcγRIIa (type R)
T6 chain: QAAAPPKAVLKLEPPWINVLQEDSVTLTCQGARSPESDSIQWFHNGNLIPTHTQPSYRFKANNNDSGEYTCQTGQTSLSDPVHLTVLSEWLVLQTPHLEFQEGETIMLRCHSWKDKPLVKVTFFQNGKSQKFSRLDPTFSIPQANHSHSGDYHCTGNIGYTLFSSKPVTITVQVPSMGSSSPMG

T7: human FcγRIIb extracellular domain with C-terminal His-tag (human, UniProt P31994 43-217)
T7 construct: also called human FcgRIIb
T7 sequence: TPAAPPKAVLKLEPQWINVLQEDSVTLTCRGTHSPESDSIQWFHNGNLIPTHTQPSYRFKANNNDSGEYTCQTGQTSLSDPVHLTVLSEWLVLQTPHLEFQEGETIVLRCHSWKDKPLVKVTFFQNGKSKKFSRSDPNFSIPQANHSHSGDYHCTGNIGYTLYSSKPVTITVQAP

B1: M103205H795-MY389/M103202L889-SK1 (antibody, human IgG1, kappa)
heavy: QVTLKESGPVLVKPTETLTLTCTVSGIDLSHDDISWVRQAPGKGLEWVGIISYAGSTYYASWAKGRLTISKDTSKNQVVLTMTNMDPVDTATYYCARGVPAYSHGGDLWGQGTLVTVSSASTKGPSVFPLAPSSKSTSGGTAALGCLVKDYFPEPVTVSWNSGALTSGVHTFPAVLQSSGLYSLSSVVTVPSSSLGTQTYICNVNHKPSNTKVDKKVEPKSCDKTHTCPPCPAPELLTGPLVFLFPPKPKDTLMISRTPEVTCVVVDVSDEDPEVKFNWYVDGVEVHNAKTKPREEQYNSTYRVVSVLTVLHQDWLNGKEYKCKVSNKALPKPIEKTISKAKGQPREPQVYTLPPSREEMTKNQVSLTCLVKGFYPSDIAVEWESNGQPENNYKTTPPVLDSDGSFFLYSKLTVDKSRWQQGNVFSCSVMHEALHNHYTQKSLSLSP
light: DIVMTQSPATLSLSPGERATLSCTSSQSVYHANWLSWFQQKPGQPPKLLIYWASTLAYGVPSRFSGSGSGTDFTLTISSLQPEDAATYYCAGGYGGGRYAFGQGTKVEIKRTVAAPSVFIFPPSDEQLKSGTASVVCLLNNFYPREAKVQWKVDNALQSGNSQESVTEQDSKDSTYSLSSTLTLSKADYEKHKVYACEVTHQGLSSPVTKSFNRGEC
notes: Substitutions introduced into M103205H795-SG1, expressed with M103202L889-SK1 as light chain; EU numbering
B2: M103205H795-MY526/M103202L889-SK1 (antibody, human IgG1, kappa)
heavy: B1 heavy with A233T, L241V, Q297L
light: B1 light
notes: as for B1
B3: M103205H795-MY520/M103202L889-SK1 (antibody, human IgG1, kappa)
heavy: B1 heavy with P234D, L241V, Q297L
light: B1 light
notes: as for B1
B4: M103205H795-MY516/M103202L889-SK1 (antibody, human IgG1, kappa)
heavy: B1 heavy with L241V, Q297L, S300L
light: B1 light
notes: as for B1
B5: M103205H795-MY527/M103202L889-SK1 (antibody, human IgG1, kappa)
heavy: B1 heavy with A233T, L241S, Q297L
light: B1 light
notes: as for B1
B6: M103205H795-MY525/M103202L889-SK1 (antibody, human IgG1, kappa)
heavy: B1 heavy with A233T, L241V
light: B1 light
notes: as for B1
B7: M103205H795-MY522/M103202L889-SK1 (antibody, human IgG1, kappa)
heavy: B1 heavy with A233G, L241V
light: B1 light
notes: as for B1
B8: M103205H795-MY400/M103202L889-SK1 (antibody, human IgG1, kappa)
heavy: B1 heavy with L241S, P333E
light: B1 light
notes: as for B1
B9: M103205H795-MY515/M103202L889-SK1 (antibody, human IgG1, kappa)
heavy: B1 heavy with L241S, Q297L, S300L
light: B1 light
notes: as for B1
B10: M103205H795-MY392/M103202L889-SK1 (antibody, human IgG1, kappa)
heavy: B1 heavy with L241S, S300L
light: B1 light
notes: as for B1
B11: M103205H795-MY524/M103202L889-SK1 (antibody, human IgG1, kappa)
heavy: B1 heavy with A233G, L241S, Q297L
light: B1 light
notes: as for B1
B12: M103205H795-MY521/M103202L889-SK1 (antibody, human IgG1, kappa)
heavy: B1 heavy with P234D, L241S, Q297L
light: B1 light
notes: as for B1
B13: M103205H795-MY514/M103202L889-SK1 (antibody, human IgG1, kappa)
heavy: B1 heavy with L241V, S300L
light: B1 light
notes: as for B1
B14: M103205H795-MY523/M103202L889-SK1 (antibody, human IgG1, kappa)
heavy: B1 heavy with A233G, L241V, Q297L
light: B1 light
notes: as for B1

Target: T1, cynomolgus monkey FcγRIIa1 …
Test: SPR (BIACORE); KD of SG1 / KD of variant;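 further: relative to parent M103205H795-SG1 carrying the SG1 human heavy chain constant region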

| KD fold (SG1 = 1) [fold] | Binder |
| --- | --- |
| 1.6 | B1 |
| 2.5 | B2 |
| 1.3 | B3 |
| 21.3 | B4 |
| 2.9 | B5 |
| 2 | B6 |
| 1.9 | B7 |
| 1.8 | B8 |
| 22.9 | B9 |
| 10.7 | B10 |
| 3.2 | B11 |
| 1.3 | B12 |
| 12.3 | B13 |
| 2.3 | B14 |

Target: T2, cynomolgus monkey FcγRIIa2 …
Test: SPR (BIACORE); KD of SG1 / KD of variant;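 further: relative to parent M103205H795-SG1 carrying the SG1 human heavy chain constant region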

| KD fold (SG1 = 1) [fold] | Binder |
| --- | --- |
| 3.2 | B1 |
| 4.3 | B2 |
| 2.2 | B3 |
| 3.9 | B4 |
| 3.5 | B5 |
| 4.6 | B6 |
| 4.3 | B7 |
| 2.3 | B8 |
| 3.2 | B9 |
| 2.2 | B10 |
| 4.6 | B11 |
| 1.5 | B12 |
| 3.2 | B13 |
| 3.9 | B14 |

Target: T3, cynomolgus monkey FcγRIIa3 …
Test: SPR (BIACORE); KD of SG1 / KD of variant;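 further: relative to parent M103205H795-SG1 carrying the SG1 human heavy chain constant region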

| KD fold (SG1 = 1) [fold] | Binder |
| --- | --- |
| 12.1 | B1 |
| 13.1 | B2 |
| 8.3 | B3 |
| 21.5 | B4 |
| 5 | B5 |
| 15.5 | B6 |
| 18.3 | B7 |
| 4.5 | B8 |
| 5.9 | B9 |
| 4.4 | B10 |
| 6.3 | B11 |
| 3.9 | B12 |
| 11.3 | B13 |
| 15.5 | B14 |

Target: T4, cynomolgus monkey FcγRIIb extracellular …
Test: SPR (BIACORE); KD of SG1 / KD of variant;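 further: relative to parent M103205H795-SG1 carrying the SG1 human heavy chain constant region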

| KD fold (SG1 = 1) [fold] | Binder |
| --- | --- |
| 2.6 | B1 |
| 3.9 | B2 |
| 1.5 | B3 |
| 4 | B4 |
| 5 | B5 |
| 3.5 | B6 |
| 3.4 | B7 |
| 2.9 | B8 |
| 4.6 | B9 |
| 2.6 | B10 |
| 5.8 | B11 |
| 2.9 | B12 |
| 2.4 | B13 |
| 3.8 | B14 |

Target: T5, cynomolgus monkey FcγRIIIaS …
Test: SPR (BIACORE); KD of SG1 / KD of variant

| KD fold (SG1 = 1) [fold] | Binder |
| --- | --- |
| 0.24 | B1 |
| 0.23 | B2 |
| 0.18 | B3 |
| 0.12 | B4 |
| 0.24 | B5 |
| 0.26 | B6 |
| 0.19 | B7 |
| 0.15 | B8 |
| 0.09 | B9 |
| 0.09 | B10 |
| 0.18 | B11 |
| 0.16 | B12 |
| 0.08 | B13 |
| 0.17 | B14 |

Target: T6, human FcγRIIaR extracellular domain …
Test: SPR (BIACORE); KD of SG1 / KD of variant

| KD fold (SG1 = 1) [fold] | Binder |
| --- | --- |
| 5.8 | B1 |
| 5.2 | B2 |
| 3.3 | B3 |
| 12.9 | B4 |
| 3.8 | B5 |
| 6.5 | B6 |
| 6.5 | B7 |
| 1.5 | B8 |
| 4.2 | B9 |
| 2.7 | B10 |
| 3.9 | B11 |
| 3.3 | B12 |
| 6.5 | B13 |
| 3.7 | B14 |

target: T7, human FcγRIIb extracellular domain with …; test: SPR (BIACORE); KD of SG1 / KD of variant

| KD fold (SG1 = 1) [fold] | Binder |
| --- | --- |
| 4.2 | B1 |
| 3.8 | B2 |
| 3.5 | B3 |
| 9 | B4 |
| 3.5 | B5 |
| 3.8 | B6 |
| 4.2 | B7 |
| 1.8 | B8 |
| 3.8 | B9 |
| 2.7 | B10 |
| 4.5 | B11 |
| 3.2 | B12 |
| 6.7 | B13 |
| 4.2 | B14 |

target: T8, human FcγRIIIaV extracellular domain with C-terminal His-tag (human, UniProt P08637 17-208); test: SPR (BIACORE); KD of SG1 / KD of variant
T8 construct: also called human FcgRIIIaV
T8 sequence (P08637 17-208 F176V): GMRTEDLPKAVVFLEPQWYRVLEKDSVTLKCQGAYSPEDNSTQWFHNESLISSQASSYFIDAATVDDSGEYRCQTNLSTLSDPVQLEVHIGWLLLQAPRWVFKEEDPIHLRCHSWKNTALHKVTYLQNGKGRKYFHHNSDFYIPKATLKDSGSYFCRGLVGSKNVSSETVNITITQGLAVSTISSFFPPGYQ

| KD fold (SG1 = 1) [fold] | Binder |
| --- | --- |
| 0.23 | B1 |
| 0.19 | B2 |
| 0.29 | B3 |
| 0.12 | B4 |
| 0.18 | B5 |
| 0.19 | B6 |
| 0.14 | B7 |
| 0.1 | B8 |
| 0.09 | B9 |
| 0.09 | B10 |
| 0.18 | B11 |
| 0.16 | B12 |
| 0.08 | B13 |
| 0.15 | B14 |
